In a protein production outcome set (Wang et al. 2014):

Experiment: label from the status in PepcDB records

Sequence	protein production
MSIIIPAYNEEENIKRAIKAALSQDYPVSEVIVVDDGSEDGTYERAKEIKDHRLKVLKIDHRGKAGAINEGLKIAKGSVIVTTDADSFMSKDAVRRLVERFYSDDVVAVGGQIRVIVESFMTLVQDIEHLRIAMYRRGKELENLSLAPGPLSAFRRDVLEKIGGIQRSIVEDYATTKIVKKYGRVVYAPKAKLYTRMPITLRDLWRQRKRWFLGDLQHHNLNDLLNLLLGDVIALLDVILPFIFLLEGSYLPLLAFVMFEVITMVIAVIWEGGSLIEALLFPVVLWFLALFYLSLHLYGYAVYGLKSLLRFTRS	failed
MFENESLSFEEQTIIQAAERYVQQELANEASGHDWWHIYRVTQLAKTIAEKEQANLFLCILTALLHDIGDEKFNESEEAGLLKVQQWLEANNVSTEQTNHILSIIANMSFKGGNTGKTVTTLEGKVVQDADRLDAIGAIGIARVMAYSGNKGRLIHDPHKQPREQLTQEEYRNGEDTAIMHFYEKLLKLKEQMNTNYGRLLAEKRHQFMELYLEEFYQEWDGHRLEHHHHHH	not failed
SFRHTLSVDPSEQLSQDFADPVTDSGYESDEEAAAAATASLSGEEAALWNLVDPQQRLIFVLDGPAAQTLRVKRTGNLERQVVNIHRLPLERAPTVATSLLAATRPQHLVVALRTIEPHQAAAILTSTSYPSLSNVENASQVLVLANDLVQIDDPLLRPLWSDEGTQQNRIQLRWVETGCIGGITAALLAAGCWLRIPVLALLAVEDDDGPSPATLEALLLAAERFGCFTRADWEIRMPNLRQLLAKRQLLYI	not failed
MNTHYVGPVLYTPKENVSEKLLKLFDADQPIIFCYTARFYDNVGESGKAIFDNMIKIADKIDASIIISTGNKKDELLALDIASKELKSGKVSIVDYVPLDMAYEKSDLVIHHGGHGSCLAQFYYGVPSVIIPTHTEREYNARMCEKLHVGKMLPRRELNSANLKNCINDVLNDITYKKSVRDWKEKVSGLEHHHHHH	failed
MYCWNPELYAFSSSAQKSWGIELLTKFPLKGNERVLDVGCGDGKLSAEIAKRLPEGSVLGIDLSEAMVCFAKNHYPKEQFPNLSFMLMDAGNVPFESEFDVIFSNAALHWIKEPKAIETVLKGFLKSLRPEGKLLAQFGGRGNAAEVLLVLNSMLEDEKWSPYFGNFVFPYGFYGPEEYGKWLKNAGFSVRRAELYSKDMTLKGKEGLSGWFASTWHPFTQRVPENLKEEFIDELAVNFIKLHPLDNEGYVHIRMVRLEIEADIEK	failed
PKKIMLVAGHGYNDPGAVGNGTNERDFIRKYITPNIAKYLRHAGHEVALYGGSSQSQDMYQDTAYGVNVGNKKDYGLYWVKSQGYDIVLEIHLDAAGESASGGHVIISSQFNADTIDKSIQDVIKNNLGQIRGVTPRNDLLNVNVSAEININYRLSELGFITNKNDMDWIKKNYDLYSKLIAGAIHGK	failed
MGLIYKVADQDWEFERIHKLNYKTFVEEIPQHEETKDRVRIDRFHDENTYLICLDEDKLVGMVALRGKRPFSLDYKISNLDFYLQEHGENVYEIRLLSVEREYRNGRALLGLIRFLHRYLLLNGYELALISATTRELPLYEQMGFKSFHTL	failed
MDYFGLAAKYIPFVTLGLLPIMNPLSTVPLFLELTKRMSPERKHQQARRACLYALSILAVFLFIGNGIITLFGISLAGIRVAGGLIILVLAFRMLFSGEGEEASIETEATEIKRANLDFSFSPLAMPSLAGPGSIAVVMSYGSQIPDDALVFGHFIVICGISITVLIAYIALAGSAWIAKFLGEHGIQAVTKIMGFLLTCIAVQFIASGIRDFSQTL	failed
MKKIFVIITTLLAVAIIIGSIITVVFSQRQAQTFKIQQQQFVKKPIPTLFLHGFGGSANSEKFMVKQAEKRGVTKDIITAYVSKDGAVTFKGKLRKDAVNPIVKIELENNRQGYLDKNAAWFKNVLTKLQSEYNFDKFNFVGHSMGNLTFAQYMMTYGNDKSLPQLNKQVNIAGTFNGVLNMNEDVNEITVDKDGKPSRMNQPYQQLRVLKDIYKGKGIEVLNIYGDLKDGTHSDGRVSNSSSKSLKYLLGNSPKSYRESKYEGEPAQHSQLHENENVANELIDFLWKK	failed
MMKLKKVLVLGGTRFFGKHLVEALLKDGHDVTIATRGITEDSFGSRVKRLIVDREDEKQLAERLEDKSYDIVYDNLCYSSNAATIICEVLRGKTRKYVMTSSMAVYDPAINLSEEDFNPYEYTIAYGGRNDFNYGEGKRVAEAVVFQQATFPVVAVRFPVVIGENDYTKRLQFYVEHIVREEPVAVNHLDGELSFIHEEEAGGFLAWCGMEDIEGPINACSNGVVSSREIIHFIEENTGIKPLVQEVGDHVAPYNEVTNCTLHNGKANELGFPFRELKIEIEKVLRYYIHATK	failed
YLDLWQTQDAKIRAKLAAVFQAEQNLNEAAIAYCLARALPEETAIFFANSMVVRYAEFFWQLNDQQILPYFNRGANGIDGTLSTALGIAENHSPAVLLTGDLALLHDINGFLTLSKFTGSLTIIVINNQGGGIFEMLPIAEEKDIFEDYFATPQTVEFSKVCDLYGIEYQAIQTKADLMQTCAILPPRGVRLLEVKTNRNQAMTWLKDLFQ	failed
MSLRQVIPIPSPPAKYLLPEVTVLDYGKKCVVIDLDETLVHSSFKPISNADFIVPVEIDGTIHQVYVLKRPHVDEFLQRMGQLFECVLFTASLAKYADPVADLLDRWGVFRARLFRESCVFHRGNYVKDLSRLGRELSKVIIVDNSPASYIFHPENAVPVQSWFDDMTDTELLDLIPFFEGLSREDDEGHHHHHH	not failed
TEDTVIKVSVLRGPSVIAFADWLENPPIIDNKKVQVKVVDSPDLAQALLIKQETDIAVLPMINAANLYNKGIKIKLAGCPIWGTLYLVEKTPLKEPALYVFGNGTTPDILTRYYLGRQRLDYPLNYAFNTAGEITQGILAGKVNRAVLGEPFLSIALRKDSSLRITADLNHLTDNDTLGFAQTAVVYTPTMEKYRIAFEDALRASCQKAVRYPKETIHSLEEHGIFAQGALTPKSIERCKIYYLSAIEAKDAVMGFLRLIEQYEPKAVGGRLPDAGFIPEKQ	not failed
MSEEFDESEIIFSDNYFPIRRREDGNEKENNRPVDFRENSERVWNKSSRRSKTTPLPSAVTAFSSSLPVNIPMRRYSTEEEYSDDDGGRKMIPPHLIVGRRMEGGQMAFSVCTGNGRTLKGRDLSRVRNSVLKLTGFLEA	failed
MLGYLLLYMIFGGILLAYGSDWFIEGSTRVAKHFNVSNFVIGATIVAFGTSLPEIVTSSGAALSGSPGLAVGNAIGSCIANIGIILGISVLMYPLIIKKRAIIKNGNIYLIATILLVILGYNGFSRFDGLILFLFMIIYVIYTIKTSESDEEEIISDITVKKASIFIVVGLLAVILGSDLFIGGAKGIAEYFNVPESIIGFSLVAFGTSLPELASSVAAAKRKLGSIVLGNVIGSNIANTCVALSFSAMIVDIPKYNVELMVNTIMALLIIFTMNREKIKKMLNFKNFRTDYFSKIDRIDGISYILIYLIFLAYLLGYIF	failed
MSPGGLCDAPHMAVAPRVKPLDLFTPEEWTRISARSSWRGIWMVAHAWGVILAAGALFVAFPNPLTYVLAVMLIGARQLGLAILMHEAAHGGLHPKLKVNDWLGEWLCAAPVGASLASYRPYHLSHHKYAQQAEDPDLVLSAPFPTTRRSLRRKMIRDLTGQTFFKQRFGPLLGKMKGAKTTGQPKGAIFAGEIARQRPFLLWNLGILVVLSALGLWWAWPALWIVPMATWFPLVTRLRNIAEHALVAKDEPDPFRHARTTNANWIERALIAPYYVNFHAEHHMFMHTPCWNLPLAHRVLEKKGLTQGMLTAPGYLSVLKAASSKPVAA	failed
VRSQVLKYMVPGARVIRGLDWKWRDQDGSPQGEGTVTGELHNGWIDVTWDAGGSNSYRMGAEGKFDLKLAPGY	not failed
MTIHDNTLFSADERSRFLSSYASLIRTLAPDRQLVKKVRSLLSRFTELGCFDRDKNGMHGLLRNMEVARIASCEIGLGIEAIGALLFYRPAMKGLTRPEEIAELMGEDVARLIDLLLKTSEIYMRNTAINTANFEHFLLSIAEDIRVVLLIIADRSYLLRQAKDMVCAEERTALAAEVSYLYAPLAHRLGLYAIKSEMEDLCLKYTDRQTFDFIKRKLGETKRSRDAYIEAFIAPLRRRLDEALPNIPYEMKGRTKSINSIRNKLRQQGIEFESIYDLFAIRIILDVPVKDEKAACWHVYSIITDMYQPNPQRMKDWISIPKSNGYESLHVTVMGPQNRWVEVQIRSRRMDEVAERGLAAHWKYKGIKSESGLDEFLTSVRETLEARDHSSDDSAETVKNFKMNLFTDEIYAFTPTGELIKLPQGASVLDFAFAIHSRIGCQAVGANVNGKNVPLKHKLENGDSVSIITSAQQTPKKDWLSYVVSSKARNKIKQQLRLQMESSIGVVKELLNRRLKNRKLPFEEAVFTRVVRRKGFKHLTDFYMEIAADRLDVQEVLELYSHELEEEQRRDAGSGAARRSADTFVAHPPKEEEIVKGGKSDVLVIDNNMTGVEYSFGKCCNPIYGDSVFGFVSNSGIKIHRTDCPNAPDMFSRYGYRIIEARWSGKGSTGYEATLHVIGQDNLAIVTNITSVINKEPGVSLRAYSINSKDNLFEGVFTVEVPDTSTLSILLRKIRATHGVKSAERH	failed
MLALKKKSVKAAFEALIPKIMEEGTEMVSEDGQKCKELMNTIIEITDPSDKSISEKYPLGERAVESYTEQLLHGSAATFVYDYHERIFEYPSDKKELKNDQIDYIVNKLKEQINSRRAIAITWNPYIDQTVKDVPCLQIVQFLIRDNKLYQTVLFRSNDAFLAFHANAIGLIALGEMVAEKLEIELAKYTHHSVSMHVYSERDIDALKKF	not failed
MNHSIPTLRTERLTLRPLAMADFPAYRDFMASPRSTGVGGPYDLPSTWGVFCHDLANWHFFGHGALMIDLGETGECIGQIGINHGPLFPEKELGWLLYEGHEGRGYAAEAAVALRDWAFETLNLPTLVSYVSPQNRKSAAVAERIGGTLDPLAPRSDPEDLVYRYHQVKTA	not failed
MTLELLQAQAQNCTACRLMEGRTRVVFGEGNPDAKLMIVGEGPGEEEDKTGRPFVGKAGQLLNRILEAAGIPREEVYITNIVKCRPPQNRAPLPDEAKICTDKWLLKQIELIAPQIIVPLGAVAAEFFLGEKVSITKVRGKWYEWHGIKVFPMFHPAYLLRNPSRAPGSPKHLTWLDIQEVKRALDALPPKERRPVKAVSQEPLF	not failed
PIKMGWLKKQRSIVKNWQQRYFVLRAQQLYYYKDEEDTKPQGCMYLPGCTIKEIATNPEEAGKFVFEIIPASWDQNRMGQDSYVLMASSQAEMEEWVKFLRRVAG	not failed
SDSAFANLDAAGFLQIWQHFDADDNGYIEGKELDDFFRHMLKKLQPKDKITDERVQQIKKSFMSAYDATFDGRLQIEELANMILPQEENFLLIFRREAPLDNSVEFMKIWRKYDADSSGYISAAELKNFLKDLFLQHKKKIPPNKLDEYTDAMMKIFDKNKDGRLDLNDLARILALQENFLLQFKMDASSQVERKRDFEKIFAHYDVSRTGALEGPEVDGFVKDMMELVRPSISGGDLDKFRECLLTHCDMNKDGKIQKSELALCLGLKHKP	not failed
GQLSIKLWFDKVGHQLIVTILGAKDLPSREDGRPRNPYVKIYFLPDRSDKNKRRTKTVKKTLEPKWNQTFIYSPVHRREFRERMLEITLWDQARVREEESEFLGEILIELETALLDDEPHWYKLQTHD	not failed
MSYLGGYGLIYLVTIVGYFILASFLGSFQLSSDLFNFEFYSSLSGISALMVWAFWLFLIYLNIILVVRRLHDLNKSGWMGLLLFIPVVQFFFMLYLLLASGTAGTNQYGPVRPSTFIEKLMAWLILIAILISLISTVGFFYYFSGTDTIQTPTQILQKGTEYF	failed
